Four sequences from the supplement of paper PMC11316812 can be followed below.

± gives the standard deviation of the averaged measurements.

The test system of one data set is MCF7. Put plainly: percentage of EdU-negative (G0-arrested) nuclei per well, 72 h; higher = more G0 arrest. Particulars: reference: sequence is the full UniProt precursor, the tested protein was the secreted form or ectodomain.
In a further data set the test system is hTERT-HMEC. The description is as above. Particulars: reference: sequence is the full UniProt precursor, the tested protein was the secreted form or ectodomain.
[1] abbreviates: protein concentration 0.0357143 µM.
The mark [2] stands for this setting: protein concentration 0.357143 µM.
[3] abbreviates: protein concentration 0.0308875 µM.
The mark [4] stands for this setting: protein concentration 0.308875 µM.
Where [5] appears, read: protein concentration 0.0225 µM.
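Note: secreted proteins added to cultured cells, EdU pulse at the end, nuclei found by Hoechst imaging, EdU status from nuclear versus surrounding ring intensity ratio, PBS as neutral control.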

Regarding “MALPSRILLWKLVLLQSSAVLLHSGSSVPAAAGSSVVSESAVSWEAGARAVLRCQSPRMVWTQDRLHDRQRVLHWDLRGPGGGPARRLLDLYSAGEQRVYEARDRGRLELSASAFDDGNFSLLIRAVEETDAGLYTCNLHHHYCHLYESLAVRLEVTDGPPATPAYWDGEKEVLAVARGAPALLTCVNRGHVWTDRHVEEAQQVVHWDRQPPGVPHDRADRLLDLYASGERRAYGPLFLRDRVAVGADAFERGDFSLRIEPLEVADEGTYSCHLHHHYCGLHERRVFHLTVAEPHAEPPPRGSPGNGSSHSGAPGPDPTLARGHNVINVIVPESRAHFFQQLGYVLATLLLFILLLVTVLLAARRRRGGYEYSDQKSGKSKGKDVNLAEFAVAAGDQMLYRSEDIQLDYKNNILKERAELAHSPLPAKYIDLDKGFRKENCK [Q9BRK3]”, the “percentage of EdU-negative” value is 23.2 ± 2.3% in the data set on MCF7 (setting [1]), 25 ± 0.57% in the data set with MCF7 (setting [2]), 4.84 ± 0.53% with hTERT-HMEC (setting [1]) and 5.72 ± 0.27% in the data set with hTERT-HMEC (setting [2]).

Consider “MALQRTHSLLLLLLLTLLGLGLVQPSYGQDGMYQRFLRQHVHPEETGGSDRYCNLMMQRRKMTLYHCKRFNTFIHEDIWNIRSICSTTNIQCKNGKMNCHEGVVKVTDCRDTGSSRAPNCRYRAIASTRRVVIACEGNPQVPVHFDG”, for which the “percentage of EdU-negative” value in the data set on MCF7 (setting [3]) is 25 ± 2.2%; with MCF7 (setting [4]), 25.6 ± 4.4%; with hTERT-HMEC (setting [3]), 4.98 ± 0.26%; with hTERT-HMEC (setting [4]), 4.74 ± 0.71%.

Regarding “MALRRLGAALLLLPLLAAVEETLMDSTTATAELGWMVHPPSGWEEVSGYDENMNTIRTYQVCNVFESSQNNWLRTKFIRRRGAHRIHVEMKFSVRDCSSIPSVPGSCKETFNLYYYEADFDSATKTFPNWMENPWVKVDTIAADESFSQVDLGGRVMKINTEVRSFGPVSRSGFYLAFQDYGGCMSLIAVRVFYRKCPRIIQNGAIFQETLSGAESTSLVAARGSCIANAEEVDVPIKLYCNGDGEWLVPIGRCMCKAGFEAVENGTVCRGCPSGTFKANQGDEACTHCPINSRTTSEGATNCVCRNGYYRADLDPLDMPCTTIPSAPQAVISSVNETSLMLEWTPPRDSGGREDLVYNIICKSCGSGRGACTRCGDNVQYAPRQLGLTEPRIYISDLLAHTQYTFEIQAVNGVTDQSPFSPQFASVNITTNQAAPSAVSIMHQVSRTVDSITLSWSQPDQPNGVILDYELQYYEKELSEYNATAIKSPTNTVTVQGLKAGAIYVFQVRARTVAGYGRYSGKMYFQTMTEAEYQTSIQEKLPLIIGSSAAGLVFLIAVVVIAIVCNRRGFERADSEYTDKLQHYTSGHMTPGMKIYIDPFTYEDPNEAVREFAKEIDISCVKIEQVIGAGEFGEVCSGHLKLPGKREIFVAIKTLKSGYTEKQRRDFLSEASIMGQFDHPNVIHLEGVVTKSTPVMIITEFMENGSLDSFLRQNDGQFTVIQLVGMLRGIAAGMKYLADMNYVHRDLAARNILVNSNLVCKVSDFGLSRFLEDDTSDPTYTSALGGKIPIRWTAPEAIQYRKFTSASDVWSYGIVMWEVMSYGERPYWDMTNQDVINAIEQDYRLPPPMDCPSALHQLMLDCWQKDRNHRPKFGQIVNTLDKMIRNPNSLKAMAPLSSGINLPLLDRTIPDYTSFNTVDEWLEAIKMGQYKESFANAGFTSFDVVSQMMMEDILRVGVTLAGHQKKILNSIQVMRAQMNQIQSVEGQPLARRPRATGRTKRCQPRDVTKKTCNSNDGKKKGMGKKKTDPGRGREIQGIFFKEDSHKESNDCSCGG [Q6NVW1]”, the “percentage of EdU-negative” value with MCF7 (setting [5]) came to 25.8 ± 2.3%; with MCF7 (protein concentration 0.225 µM), 26.5 ± 1%; in the data set with hTERT-HMEC (setting [5]) it was 5.5 ± 0.22%; in the data set on hTERT-HMEC (protein concentration 0.225 µM), 8.19 ± 1%.

As for “MALRRPPRLRLCARLPDFFLLLLFRGCLIGAVNLKSSNRTPVVQEFESVELSCIITDSQTSDPRIEWKKIQDEQTTYVFFDNKIQGDLAGRAEILGKTSLKIWNVTRRDSALYRCEVVARNDRKEIDEIVIELTVQVKPVTPVCRVPKAVPVGKMATLHCQESEGHPRPHYSWYRNDVPLPTDSRANPRFRNSSFHLNSETGTLVFTAVHKDDSGQYYCIASNDAGSARCEEQEMEVYDLNIGGIIGGVLVVLAVLALITLGICCAYRRGYFINNKQDGESYKNPGKPDGVNYIRTDEEGDFRHKSSFVI [Q9BX67]”, the “percentage of EdU-negative” value with MCF7 (setting [5]) was found to be 21.3 ± 0.85%; in the data set with MCF7 (protein concentration 0.225 µM), 24.5 ± 2.1%; in the data set with hTERT-HMEC (setting [5]) it was 4.86 ± 0.27%; in the data set on hTERT-HMEC (protein concentration 0.225 µM), 5.13 ± 0.74%.
